Assay results published in IntAct's records for PubMed 31515488.

B1: Gem-associated protein 6 (Homo sapiens), Q8WXD5 (parent)
chain: MSEWMKKGPLEWQDYIYKEVRVTASEKNEYKGWVLTTDPVSANIVLVNFLEDGSMSVTGIMGHAVQTVETMNEGDHRVREKLMHLFTSGDCKAYSPEDLEERKNSLKKWLEKNHIPITEQGDAPRTLCVAGVLTIDPPYGPENCSSSNEIILSRVQDLIEGHLTASQ
B2: Neurogenin-3 (Homo sapiens), Q9Y4Z2 (parent)
chain: MTPQPSGAPTVQVTRETERSFPRASEDEVTCPTSAPPSPTRTRGNCAEAEEGGCRGAPRKLRARRGGRSRPKSELALSKQRRSRRKKANDRERNRMHNLNSALDALRGVLPTFPDDAKLTKIETLRFAHNYIWALTQTLRIADHSLYALEPPAPHCGELGSPGGSPGDWGSLYSPVSQAGSLSPAASLEERPGLLGATFSACLSPGSLAFSDFL
B3: Tuftelin-interacting protein 11 (Homo sapiens), Q9UBB9 (parent)
chain: MSLSHLYRDGEGRIDDDDDERENFEITDWDLQNEFNPNRQRHWQTKEEATYGVWAERDSDDERPSFGGKRARDYSAPVNFISAGLKKGAAEEAELEDSDDEEKPVKQDDFPKDFGPRKLKTGGNFKPSQKGFAGGTKSFMDFGSWERHTKGIGQKLLQKMGYVPGRGLGKNAQGIINPIEAKQRKGKGAVGAYGSERTTQSMQDFPVVDSEEEAEEEFQKELSQWRKDPSGSKKKPKYSYKTVEELKAKGRISKKLTAPQKELSQVKVIDMTGREQKVYYSYSQISHKHNVPDDGLPLQSQQLPQSGKEAKAPGFALPELEHNLQLLIDLTEQEIIQNDRQLQYERDMVVNLFHELEKMTEVLDHEERVISNLSKVLEMVEECERRMQPDCSNPLTLDECARIFETLQDKYYEEYRMSDRVDLAVAIVYPLMKEYFKEWDPLKDCTYGTEIISKWKSLLENDQLLSHGGQDLSADAFHRLIWEVWMPFVRNIVTQWQPRNCDPMVDFLDSWVHIIPVWILDNILDQLIFPKLQKEVENWNPLTDTVPIHSWIHPWLPLMQARLEPLYSPIRSKLSSALQKWHPSDSSAKLILQPWKDVFTPGSWEAFMVKNIVPKLGMCLGELVINPHQQHMDAFYWVIDWEGMISVSSLVGLLEKHFFPKWLQVLCSWLSNSPNYEEITKWYLGWKSMFSDQVLAHPSVKDKFNEALDIMNRAVSSNVGAYMQPGARENIAYLTHTERRKDFQYEAMQERREAENMAQRGIGVAASSVPMNFKDLIETKAEEHNIVFMPVIGKRHEGKQLYTFGRIVIYIDRGVVFVQGEKTWVPTSLQSLIDMAK
partner: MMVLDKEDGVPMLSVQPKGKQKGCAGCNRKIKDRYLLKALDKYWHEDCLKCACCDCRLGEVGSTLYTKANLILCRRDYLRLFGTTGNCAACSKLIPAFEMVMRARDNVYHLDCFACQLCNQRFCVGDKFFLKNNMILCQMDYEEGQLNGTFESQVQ
B4: WASH complex subunit 3 (Homo sapiens), Q9Y3C0 (parent)
chain: MDEDGLPLMGSGIDLTKVPAIQQKRTVAFLNQFVVHTVQFLNRFSTVCEEKLADLSLRIQQIETTLNILDAKLSSIPGLDDVTVEVSPLNVTSVTNGAHPEATSEQPQQNSTQDSGLQESEVSAENILTVAKDPRYARYLKMVQVGVPVMAIRNKMISEGLDPDLLERPDAPVPDGESEKTVEESSDSESSFSD
partner: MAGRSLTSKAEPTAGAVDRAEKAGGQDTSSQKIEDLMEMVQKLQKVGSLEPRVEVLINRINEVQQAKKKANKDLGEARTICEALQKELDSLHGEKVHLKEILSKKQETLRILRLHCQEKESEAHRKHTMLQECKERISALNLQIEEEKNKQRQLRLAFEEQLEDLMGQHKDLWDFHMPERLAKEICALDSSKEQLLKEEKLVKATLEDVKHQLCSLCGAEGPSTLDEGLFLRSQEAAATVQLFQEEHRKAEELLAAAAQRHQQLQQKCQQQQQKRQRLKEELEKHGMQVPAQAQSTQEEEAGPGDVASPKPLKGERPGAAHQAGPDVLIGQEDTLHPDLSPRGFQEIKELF
B5: Protein LDOC1 (Homo sapiens), O95751 (parent)
chain: MVDELVLLLHALLMRHRALSIENSQLMEQLRLLVCERASLLRQVRPPSCPVPFPETFNGESSRLPEFIVQTASYMLVNENRFCNDAMKVAFLISLLTGEAEEWVVPYIEMDSPILGDYRAFLDEMKQCFGWDDDEDDDDEEEEDDY
partner: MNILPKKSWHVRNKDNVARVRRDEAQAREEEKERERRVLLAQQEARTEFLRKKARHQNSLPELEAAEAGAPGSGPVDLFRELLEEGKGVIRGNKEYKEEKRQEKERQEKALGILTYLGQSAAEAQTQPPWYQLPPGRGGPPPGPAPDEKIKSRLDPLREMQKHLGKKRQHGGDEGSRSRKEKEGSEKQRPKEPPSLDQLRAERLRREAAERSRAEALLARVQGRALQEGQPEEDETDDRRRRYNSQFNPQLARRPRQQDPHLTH
B6: Pachytene checkpoint protein 2 homolog (Homo sapiens), Q15645 (parent)
chain: MDEAVGDLKQALPCVAESPTVHVEVHQRGSSTAKKEDINLSVRKLLNRHNIVFGDYTWTEFDEPFLTRNVQSVSIIDTELKVKDSQPIDLSACTVALHIFQLNEDGPSSENLEEETENIIAANHWVLPAAEFHGLWDSLVYDVEVKSHLLDYVMTTLLFSDKNVNSNLITWNRVVLLHGPPGTGKTSLCKALAQKLTIRLSSRYRYGQLIEINSHSLFSKWFSESGKLVTKMFQKIQDLIDDKDALVFVLIDEVESLTAARNACRAGTEPSDAIRVVNAVLTQIDQIKRHSNVVILTTSNITEKIDVAFVDRADIKQYIGPPSAAAIFKIYLSCLEELMKCQIIYPRQQLLTLRELEMIGFIENNVSKLSLLLNDISRKSEGLSGRVLRKLPFLAHALYVQAPTVTIEGFLQALSLAVDKQFEERKKLAAYI
B7: Rho guanine nucleotide exchange factor 39 (Homo sapiens), Q8N4T4 (parent)
chain: MELSCPGSRCPVQEQRARWERKRACTARELLETERRYQEQLGLVATYFLGILKAKGTLRPPERQALFGSWELIYGASQELLPYLEGGCWGQGLEGFCRHLELYNQFAANSERSQTTLQEQLKKNKGFRRFVRLQEGRPEFGGLQLQDLLPLPLQRLQQYENLVVALAENTGPNSPDHQQLTRAARLISETAQRVHTIGQKQKNDQHLRRVQALLSGRQAKGLTSGRWFLRQGWLLVVPPHGEPRPRMFFLFTDVLLMAKPRPPLHLLRSGTFACKALYPMAQCHLSRVFGHSGGPCGGLLSLSFPHEKLLLMSTDQEELSRWYHSLTWAISSQKN
partner: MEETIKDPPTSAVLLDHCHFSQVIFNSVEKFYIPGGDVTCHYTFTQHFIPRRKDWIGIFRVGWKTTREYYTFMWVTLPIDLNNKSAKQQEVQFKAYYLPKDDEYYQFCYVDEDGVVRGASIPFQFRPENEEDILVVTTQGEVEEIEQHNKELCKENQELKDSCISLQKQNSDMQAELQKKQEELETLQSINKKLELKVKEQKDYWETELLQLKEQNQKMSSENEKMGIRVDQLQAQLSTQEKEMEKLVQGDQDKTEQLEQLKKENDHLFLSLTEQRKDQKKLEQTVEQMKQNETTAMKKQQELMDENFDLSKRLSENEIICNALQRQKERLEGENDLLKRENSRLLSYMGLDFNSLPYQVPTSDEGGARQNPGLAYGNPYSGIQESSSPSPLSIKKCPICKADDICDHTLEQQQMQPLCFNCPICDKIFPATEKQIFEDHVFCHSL
B8: Tetraspanin-2 (Homo sapiens), O60636 (parent)
chain: MGRFRGGLRCIKYLLLGFNLLFWLAGSAVIAFGLWFRFGGAIKELSSEDKSPEYFYVGLYVLVGAGALMMAVGFFGCCGAMRESQCVLGSFFTCLLVIFAAEVTTGVFAFIGKGVAIRHVQTMYEEAYNDYLKDRGKGNGTLITFHSTFQCCGKESSEQVQPTCPKELLGHKNCIDEIETIISVKLQLIGIVGIGIAGLTIFGMIFSMVLCCAIRNSRDVI
partner: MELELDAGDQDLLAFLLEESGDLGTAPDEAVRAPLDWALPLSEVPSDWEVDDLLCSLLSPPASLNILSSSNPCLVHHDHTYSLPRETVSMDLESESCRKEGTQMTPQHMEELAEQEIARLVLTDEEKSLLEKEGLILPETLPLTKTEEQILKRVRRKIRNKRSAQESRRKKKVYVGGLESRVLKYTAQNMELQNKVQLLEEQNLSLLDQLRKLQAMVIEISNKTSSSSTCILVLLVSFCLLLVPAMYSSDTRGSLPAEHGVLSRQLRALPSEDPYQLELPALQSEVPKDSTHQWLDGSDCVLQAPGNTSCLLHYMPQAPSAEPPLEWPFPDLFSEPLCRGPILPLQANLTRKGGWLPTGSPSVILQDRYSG
B9: Proteasome subunit beta type-1 (Homo sapiens), P20618 (parent)
chain: MLSSTAMYSAPGRDLGMEPHRAAGPLQLRFSPYVFNGGTILAIAGEDFAIVASDTRLSEGFSIHTRDSPKCYKLTDKTVIGCSGFHGDCLTLTKIIEARLKMYKHSNNKAMTTGAIAAMLSTILYSRRFFPYYVYNIIGGLDEEGKGAVYSFDPVGSYQRDSFKAGGSASAMLQPLLDNQVGFKNMQNVEHVPLSLDRAMRLVKDVFISAAERDVYTGDALRICIVTKEGIREETVSLRKD

Variants of: B1
Conditions: with gemi7_human GEMIN7, Q9H840
gemi7_human GEMIN7, Q9H840, sequence (Q9H840 whole entry): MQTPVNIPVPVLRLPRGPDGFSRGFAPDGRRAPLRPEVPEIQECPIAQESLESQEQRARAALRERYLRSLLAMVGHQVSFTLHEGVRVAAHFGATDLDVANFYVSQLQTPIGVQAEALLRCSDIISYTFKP

Row | effect of a mutation on the interaction | Variant
1 | with no effect | C91G

Variants of: B2
Conditions: with htf4_human TCF12, Q99081
htf4_human TCF12, Q99081, sequence (Q99081 whole entry): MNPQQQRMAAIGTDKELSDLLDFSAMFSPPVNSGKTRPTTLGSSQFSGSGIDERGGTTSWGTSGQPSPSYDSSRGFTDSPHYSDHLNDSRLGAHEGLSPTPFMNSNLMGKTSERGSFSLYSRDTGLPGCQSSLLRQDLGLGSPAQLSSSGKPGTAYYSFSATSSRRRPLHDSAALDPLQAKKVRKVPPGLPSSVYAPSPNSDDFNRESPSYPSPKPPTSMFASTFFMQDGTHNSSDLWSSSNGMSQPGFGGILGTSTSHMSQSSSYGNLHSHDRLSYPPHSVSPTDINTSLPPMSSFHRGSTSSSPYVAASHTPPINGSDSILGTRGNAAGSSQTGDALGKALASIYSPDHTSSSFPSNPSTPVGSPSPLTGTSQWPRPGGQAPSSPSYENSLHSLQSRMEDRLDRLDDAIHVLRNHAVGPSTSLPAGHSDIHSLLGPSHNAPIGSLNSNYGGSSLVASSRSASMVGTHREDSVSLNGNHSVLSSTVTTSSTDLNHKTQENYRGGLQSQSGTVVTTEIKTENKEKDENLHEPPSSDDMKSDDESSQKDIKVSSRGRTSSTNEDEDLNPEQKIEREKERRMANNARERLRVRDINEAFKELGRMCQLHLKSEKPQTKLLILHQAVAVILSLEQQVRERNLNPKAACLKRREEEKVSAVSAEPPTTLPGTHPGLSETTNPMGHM

Row | effect of a mutation on the interaction | Variant
2 | with no effect | F199S

Variants of: B3
Conditions: with rbtn1_human LMO1, P25800

Row | effect of a mutation on the interaction | Variant
3 | with no effect | S688L
4 | with no effect | R8Q

Variants of: B4
Conditions: with syce1_human SYCE1, Q8N0S2

Row | effect of a mutation on the interaction | Variant
5 | with no effect | F44L

Variants of: B5
Conditions: with leng1_human LENG1, Q96BZ8

Row | effect of a mutation on the interaction | Variant
6 | disrupting interaction strength | L12H

Variants of: B6
Conditions: with meak7_human MEAK7, Q6P9B6
meak7_human MEAK7, Q6P9B6, sequence (Q6P9B6 whole entry): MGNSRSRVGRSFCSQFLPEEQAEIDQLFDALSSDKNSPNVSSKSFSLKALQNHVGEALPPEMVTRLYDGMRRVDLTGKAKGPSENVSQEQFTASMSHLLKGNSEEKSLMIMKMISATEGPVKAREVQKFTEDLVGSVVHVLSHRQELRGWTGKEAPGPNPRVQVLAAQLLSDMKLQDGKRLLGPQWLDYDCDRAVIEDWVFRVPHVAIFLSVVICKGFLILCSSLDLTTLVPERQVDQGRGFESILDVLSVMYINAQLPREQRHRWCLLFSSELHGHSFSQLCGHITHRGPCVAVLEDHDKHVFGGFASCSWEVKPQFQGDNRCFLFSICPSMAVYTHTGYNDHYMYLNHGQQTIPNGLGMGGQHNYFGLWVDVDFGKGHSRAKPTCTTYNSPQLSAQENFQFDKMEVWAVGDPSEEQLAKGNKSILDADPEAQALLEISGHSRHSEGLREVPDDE

Row | effect of a mutation on the interaction | Variant
7 | with no effect | G409E

Variants of: B6
Conditions: with fnd3b_human FNDC3B

Row | effect of a mutation on the interaction | Variant
8 | with no effect | G409E

Variants of: B7
Conditions: with caco2_human CALCOCO2, Q13137

Row | effect of a mutation on the interaction | Variant
9 | with no effect | D204N
10 | with no effect | R230C

Variants of: B8
Conditions: with creb3_human CREB3, O43889

Row | effect of a mutation on the interaction | Variant
11 | with no effect | R118L

Variants of: B9
Conditions: with KRT15, P19012
KRT15, P19012, sequence (P19012 whole entry): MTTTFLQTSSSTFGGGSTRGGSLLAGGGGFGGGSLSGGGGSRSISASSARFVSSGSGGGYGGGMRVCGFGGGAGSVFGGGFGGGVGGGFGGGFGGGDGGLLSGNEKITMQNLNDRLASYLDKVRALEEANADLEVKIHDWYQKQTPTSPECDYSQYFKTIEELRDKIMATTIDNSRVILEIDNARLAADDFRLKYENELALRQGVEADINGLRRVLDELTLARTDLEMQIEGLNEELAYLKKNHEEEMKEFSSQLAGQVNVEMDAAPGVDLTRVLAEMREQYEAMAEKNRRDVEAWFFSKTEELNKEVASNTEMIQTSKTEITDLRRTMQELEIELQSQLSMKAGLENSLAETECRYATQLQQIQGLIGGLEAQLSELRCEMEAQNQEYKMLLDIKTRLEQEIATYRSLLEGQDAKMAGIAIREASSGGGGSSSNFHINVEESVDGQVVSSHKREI

Row | effect of a mutation on the interaction | Variant
12 | with no effect | P11A

Variants of: B9
Conditions: with traf1_human TRAF1, Q13077
traf1_human TRAF1, Q13077, sequence (Q13077 whole entry): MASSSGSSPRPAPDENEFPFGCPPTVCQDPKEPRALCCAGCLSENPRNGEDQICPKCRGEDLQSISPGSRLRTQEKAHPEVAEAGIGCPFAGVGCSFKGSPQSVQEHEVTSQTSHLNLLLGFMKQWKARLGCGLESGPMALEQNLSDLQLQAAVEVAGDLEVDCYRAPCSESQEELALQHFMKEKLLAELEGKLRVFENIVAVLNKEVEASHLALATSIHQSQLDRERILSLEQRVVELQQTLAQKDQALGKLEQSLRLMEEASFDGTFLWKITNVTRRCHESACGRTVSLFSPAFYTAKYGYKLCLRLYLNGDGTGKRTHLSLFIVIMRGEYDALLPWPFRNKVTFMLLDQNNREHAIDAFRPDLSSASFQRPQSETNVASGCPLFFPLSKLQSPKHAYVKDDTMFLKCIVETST

Row | effect of a mutation on the interaction | Variant
13 | with no effect | P11A
